According to patent CN109879965A:

Molecular target: CD3E on human peripheral blood T lymphocytes (human) (UniProt P07766)
Assay: cell-based or functional assay

Sequence of CD3E on human peripheral blood T lymphocytes (human) (P07766 23-207): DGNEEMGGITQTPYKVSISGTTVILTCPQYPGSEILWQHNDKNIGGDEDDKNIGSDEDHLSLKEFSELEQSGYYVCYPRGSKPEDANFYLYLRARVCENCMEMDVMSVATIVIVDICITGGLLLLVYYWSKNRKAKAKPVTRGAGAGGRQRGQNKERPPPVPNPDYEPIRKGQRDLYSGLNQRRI

OKT3 (antibody)
IL-2 in the supernatant of PBMC after 48 h on plate-coated antibody (1 μg/mL), IL-2 ELISA: 400 pg/mL
